The record followed here is US20250215072A1 (published 2025).

Substitutions are numbered along the chain they refer to.

The labels stand for the following.
B1: Ab11 (antibody, IgG4, V domains shown)
VH: EVQLLESGGGLVQPGGSLRLSCAASGFTFRNYAMSWVRQAPGKGLEWVSSISGSGGATYYADSVKGRFTISRDNSKNTLYLQMNSLRAEDTAVYYCARVSSGHWDFDYWGQGTLVTVSS
VL: DIQLTQSPSSLSASVGDRVTITCRASQSISSYLNWYQQKPGKAPKLLIYAASNLQSGVPSRFSGSGSGTDFTLTISSLQPEDFATYYCQQTYTVPLTFGGGTKVEIK
B2: Ab20 (antibody, IgG4, V domains shown)
VH: B1 VH with R30S, N31A, S35T, S50A, A57V, F106Y
VL: B1 VL
B3: Ab19 (antibody, IgG4, V domains shown)
VH: QVQLVESGGGVVQPGRSLRLSCAASGFTFSSFAMTWVRQAPGKGLEWVSAISGSGAATYFADSVKGRFTISRDNSKNTLYLQMNSLRAEDTAVYYCARVSSGHWDFDEWGQGTLVTVSS
VL: B1 VL
B4: Ab12 (antibody, IgG4, V domains shown)
VH: B3 VH with S31D, F32Y, T35V, A56F, A57T, F60Y, E108Y
VL: B1 VL
B5: Ab21 (antibody, V domains shown)
VH: EVQLVESGGGLVQPGGSLRLSCAASGFTFSSFSMDWVRQAPGKGLEWVSYISPDASTIYYADSVKGRFTISRDNAKNSLYLQMNSLRAEDTAVYYCARGVLDYGDMLDPWGQGTLVTVSS
VL: DIQMTQSPSSLSASVGDRVTITCQASQDITNYLNWYQQKPGKAPKLLIYDASNLETGVPSRFSGSGSGTDFTFTISSLQPEDIATYYCQQADNHPPWTFGGGTKVEIK
B6: Ab22 (antibody, IgG4, V domains shown)
VH: B5 VH with S30G, D35N, S52H, P53S
VL: B5 VL
B7: Ab24 (antibody, IgG4, V domains shown)
VH: B5 VH with G16R, S33A, D35Y
VL: B5 VL
B8: Ab23 (antibody, V domains shown)
VH: B5 VH with D35N, D54S, S56D, S78T
VL: B5 VL
B9: Ab25 (antibody, V domains shown)
VH: B5 VH with S30G
VL: B5 VL
B10: Ab29 (antibody, IgG4, V domains shown)
VH: B5 VH with G16R, S33A, D35N, D62G, A97V, G99A
VL: B5 VL
B11: Ab32 (antibody, IgG4, V domains shown)
VH: B5 VH with D35N, D54S, S56D, S78T, L101W, Y103M
VL: B5 VL
B12: Ab31 (antibody, IgG4, V domains shown)
VH: B5 VH with S78T, G99A
VL: B5 VL
B13: Ab26 (antibody, IgG4, V domains shown)
VH: B5 VH with S78T
VL: B5 VL
B14: Ab30 (antibody, IgG4, V domains shown)
VH: B5 VH with V100T
VL: B5 VL
B15: Ab33 (antibody, IgG4, V domains shown)
VH: B5 VH with D35N, D54S, S56D, S78T, R98H
VL: B5 VL

T1 sequence (P01137 30-390, chain 1 of 2): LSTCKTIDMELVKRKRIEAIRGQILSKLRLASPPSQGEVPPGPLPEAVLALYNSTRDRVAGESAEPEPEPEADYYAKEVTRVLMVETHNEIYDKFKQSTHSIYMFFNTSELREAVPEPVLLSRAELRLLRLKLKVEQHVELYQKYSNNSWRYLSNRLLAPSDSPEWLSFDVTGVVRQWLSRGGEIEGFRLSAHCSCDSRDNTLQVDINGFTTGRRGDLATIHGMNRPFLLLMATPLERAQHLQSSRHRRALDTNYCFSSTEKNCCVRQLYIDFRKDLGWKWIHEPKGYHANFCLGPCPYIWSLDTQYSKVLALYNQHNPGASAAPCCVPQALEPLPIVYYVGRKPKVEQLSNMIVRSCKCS
T1 sequence (Q14392 20-627, chain 2 of 2): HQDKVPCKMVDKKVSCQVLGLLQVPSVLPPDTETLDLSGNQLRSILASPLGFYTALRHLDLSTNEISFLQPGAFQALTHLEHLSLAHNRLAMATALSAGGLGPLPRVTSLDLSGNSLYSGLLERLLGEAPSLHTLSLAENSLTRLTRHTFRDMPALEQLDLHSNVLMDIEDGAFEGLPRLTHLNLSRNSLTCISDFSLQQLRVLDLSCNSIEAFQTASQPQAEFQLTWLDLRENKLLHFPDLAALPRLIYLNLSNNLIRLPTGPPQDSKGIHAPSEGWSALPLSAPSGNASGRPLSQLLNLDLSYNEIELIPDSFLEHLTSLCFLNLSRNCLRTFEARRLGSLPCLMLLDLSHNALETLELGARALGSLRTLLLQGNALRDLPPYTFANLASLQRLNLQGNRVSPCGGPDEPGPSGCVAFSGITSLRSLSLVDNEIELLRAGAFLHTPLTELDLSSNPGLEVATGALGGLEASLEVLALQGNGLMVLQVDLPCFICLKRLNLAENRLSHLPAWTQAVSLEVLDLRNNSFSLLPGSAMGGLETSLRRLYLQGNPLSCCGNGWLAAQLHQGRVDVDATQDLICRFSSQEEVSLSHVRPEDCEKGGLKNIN
hLRRC33-proTGFβ1 presented on cells, sequence (P01137 30-390 limits assumed, chain 1 of 2): as the sequence (P01137 30-390, chain 1 of 2) above
hLRRC33-proTGFβ1 presented on cells, sequence (Q86YC3 19-692 limits assumed, chain 2 of 2): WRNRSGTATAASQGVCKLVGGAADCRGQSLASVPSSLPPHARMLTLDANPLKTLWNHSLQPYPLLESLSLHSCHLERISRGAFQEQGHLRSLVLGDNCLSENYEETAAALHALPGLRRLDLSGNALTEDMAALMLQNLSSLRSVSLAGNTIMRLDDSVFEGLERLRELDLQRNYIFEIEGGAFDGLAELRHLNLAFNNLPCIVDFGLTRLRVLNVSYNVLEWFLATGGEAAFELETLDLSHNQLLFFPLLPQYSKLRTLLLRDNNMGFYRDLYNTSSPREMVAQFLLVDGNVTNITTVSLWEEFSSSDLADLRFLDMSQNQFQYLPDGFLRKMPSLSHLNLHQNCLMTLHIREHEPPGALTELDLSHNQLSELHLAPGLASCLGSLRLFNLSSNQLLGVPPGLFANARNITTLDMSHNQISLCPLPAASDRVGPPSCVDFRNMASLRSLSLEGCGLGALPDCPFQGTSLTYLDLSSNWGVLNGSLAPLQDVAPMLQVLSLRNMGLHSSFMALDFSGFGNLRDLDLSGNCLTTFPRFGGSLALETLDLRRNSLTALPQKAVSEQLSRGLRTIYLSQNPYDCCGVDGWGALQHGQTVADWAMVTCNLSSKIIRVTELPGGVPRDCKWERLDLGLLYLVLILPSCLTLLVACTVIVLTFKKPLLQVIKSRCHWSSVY

One assay concerns the target T1, human GARP-proTGFβ1 complex (human, UniProt P01137 30-390; Q14392 20-627).
T1 construct: also called hGARP-proTGFβ1; hGARP
The assay is described as follows: BLI (Octet). As for the experimental part:
(§1) The affinity of anti-TGFβ1 antibodies was measured by Octet@ assay on human proTGFβ1 cells, while activity was measured by CAGA12 reporter cells testing human proTGFβ1 inhibition.
(In BLI a coated tip is dipped into the sample, and binding shifts an interference pattern.)
Take B1: binding was characterised by a dissociation constant (Kd) of 0.842 nM. This counts as sub-nanomolar.
Consider B2, for which the dissociation constant Kd – broadly, the concentration at which binding is half-saturated – was 0.884 nM.
On the same count and under the same terms, the value for B3 was 11.2 nM; that for B4 was 7.01 nM; that for B5 was 0.833 nM.
Turning to B6, the Kd worked out at 0.974 nM.
B7 registered an equilibrium dissociation constant (Kd) of 0.665 nM.
B8 showed a Kd of 1.34 nM.
The same measure, in the same setting: in the case of B9 it was 0.488 nM; in that of B10, 0.307 nM; in that of B11, 0.496 nM.
Still for that read-out and setting: the value for B12 was 0.581 nM; that for B13 was 0.625 nM; that for B14 was 0.833 nM.
In turn, B15 yielded a dissociation constant (Kd) of 0.265 nM. Against the preceding molecule, the Kd is about 3.1-fold lower.

The target of another assay is T2, human LRRC33-proTGFβ1 complex (human, UniProt P01137 30-390; Q86YC3 19-650).
T2 construct: also called hLRRC33-proTGFβ1; hLRRC33
T2 sequence (P01137 30-390 limits assumed, chain 1 of 2): as the sequence (P01137 30-390, chain 1 of 2) above
T2 sequence (Q86YC3 other isoform, or with tags, fused parts or gaps limits assumed, chain 2 of 2): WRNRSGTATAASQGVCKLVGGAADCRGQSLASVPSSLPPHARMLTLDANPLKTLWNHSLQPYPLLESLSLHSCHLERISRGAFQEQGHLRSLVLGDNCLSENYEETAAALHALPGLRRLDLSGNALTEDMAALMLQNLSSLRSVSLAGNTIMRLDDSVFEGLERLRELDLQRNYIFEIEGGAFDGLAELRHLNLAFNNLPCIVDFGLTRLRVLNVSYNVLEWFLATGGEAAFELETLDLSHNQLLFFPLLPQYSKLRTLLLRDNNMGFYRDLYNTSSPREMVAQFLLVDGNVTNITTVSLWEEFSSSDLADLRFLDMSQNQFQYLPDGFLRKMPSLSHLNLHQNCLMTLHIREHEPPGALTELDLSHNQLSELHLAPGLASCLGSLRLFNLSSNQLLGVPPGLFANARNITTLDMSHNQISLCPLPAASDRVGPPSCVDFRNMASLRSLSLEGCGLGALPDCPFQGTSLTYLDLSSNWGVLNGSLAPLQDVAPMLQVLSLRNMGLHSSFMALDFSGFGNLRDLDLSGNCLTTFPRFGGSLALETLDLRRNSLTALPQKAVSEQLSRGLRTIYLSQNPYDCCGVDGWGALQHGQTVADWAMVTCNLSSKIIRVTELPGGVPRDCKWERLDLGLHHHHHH
The assay is described as follows: BLI (Octet). The method, then: as §1
On to B1, for which binding was put at a Kd of 0.555 nM. In other words, the sub-nanomolar range.
The molecule B2 displayed a dissociation constant (Kd) of 0.545 nM.
B3 showed a Kd of 0.692 nM. This Kd and that of the molecule before are within 1.5-fold of each other.
For the molecule B4, the affinity, expressed as Kd, was 0.775 nM.
B5: the affinity, expressed as Kd, was 0.455 nM.
On to B6, for which the dissociation constant (Kd) stood at 0.415 nM.
For the molecule B7, binding was characterised by a dissociation constant (Kd) of 0.41 nM.
As for B8, the Kd was found to be 0.455 nM.
Consider B9, for which binding was put at a Kd of 0.409 nM.
The molecule B10 showed a dissociation constant Kd of 0.302 nM.
In turn, B11 yielded a Kd of 0.698 nM. This Kd is about 2.3-fold higher than that of the molecule before.
B12: the dissociation constant Kd stood at 0.41 nM.
With B13, the affinity, expressed as Kd, was 0.36 nM.
The molecule B14 had a Kd of 0.535 nM.
B15 had a Kd of 0.339 nM.

The next assay deals with T1, human GARP-proTGFβ1 complex. The assay is described as follows: MSD-SET, hIgG4. The method, then: (§2) MSD-SET assays were performed to measure affinities of the antibodies at equilibrium. Briefly, each test antibody was diluted 3-5 fold and samples were mixed with biotinylated antigen in a 48-well dish. The SET samples were equilibrated for 20-24 hours at room temperature. Meanwhile, a capture plate was coated with IgG (20 nM) and incubated overnight at 4° C. or 30 minutes at room temperature, followed by a blocking step with 5% BSA. After the capture plate was washed three times, SET samples were added and incubated for 150 seconds. The plate was washed once to remove unbound complexes. 250 ng/ml SA-Sulfotag was added then washed 3 times. 2× Read Buffer was added, and signals from the labeled bound complexes were read with the use of QuickPlex™ SQ 120 instrument.
Turning to B1, the Kd was 3 nM.
The same measure, in the same setting: in the case of B2 it was 1.1 nM; in that of B3, 3.8 nM.
B4 showed an equilibrium dissociation constant (Kd) of 1.7 nM.
The molecule B6 displayed a Kd of 0.027 nM.
The molecule B7 yielded a Kd of 0.019 nM.
In turn, B10 returned a dissociation constant Kd of 0.0055 nM. Compared with the last molecule, the Kd is about 3.5-fold lower.
On the same count and under the same terms, the value for B11 was 0.015 nM; that for B12 was 0.019 nM.
B13: the dissociation constant Kd is 0.014 nM.
The molecule B14 registered a Kd of 0.022 nM.
Take B15: binding was characterised by a dissociation constant (Kd) of 0.0078 nM.

For a further assay, the target named is T2, human LRRC33-proTGFβ1 complex. The assay is described as follows: MSD-SET, hIgG4. The method, then: as §2
Take B1: the dissociation constant (Kd) stood at 6.3 nM.
Still for that read-out and setting: in the case of B2 it was 1.6 nM; in that of B3, 5.7 nM; in that of B4, 3.2 nM.
Same read-out and setting: in the case of B6 it was 0.2 nM.
In turn, B7 had a dissociation constant Kd of 0.18 nM.
Consider B10, for which the Kd was 0.043 nM.
The same measure, in the same setting: the value for B11 was 0.087 nM.
In the case of B12, the dissociation constant Kd came to 0.096 nM.
B13 returned a Kd of 0.13 nM.
B14 displayed a Kd of 0.14 nM.
Take B15: binding was put at a Kd of 0.046 nM.

For another assay, the target named is hLTBP1-proTGFβ1 as produced in the cell-based activation assay (human, UniProt P01137 30-390; Q14766 347-1721). Briefly: cell-based or functional assay.
hLTBP1-proTGFβ1 as produced in the cell-based activation assay, sequence (P01137 30-390 limits assumed, chain 1 of 2): as the sequence (P01137 30-390, chain 1 of 2) above
hLTBP1-proTGFβ1 as produced in the cell-based activation assay, sequence (Q14766 347-1721 limits assumed, chain 2 of 2): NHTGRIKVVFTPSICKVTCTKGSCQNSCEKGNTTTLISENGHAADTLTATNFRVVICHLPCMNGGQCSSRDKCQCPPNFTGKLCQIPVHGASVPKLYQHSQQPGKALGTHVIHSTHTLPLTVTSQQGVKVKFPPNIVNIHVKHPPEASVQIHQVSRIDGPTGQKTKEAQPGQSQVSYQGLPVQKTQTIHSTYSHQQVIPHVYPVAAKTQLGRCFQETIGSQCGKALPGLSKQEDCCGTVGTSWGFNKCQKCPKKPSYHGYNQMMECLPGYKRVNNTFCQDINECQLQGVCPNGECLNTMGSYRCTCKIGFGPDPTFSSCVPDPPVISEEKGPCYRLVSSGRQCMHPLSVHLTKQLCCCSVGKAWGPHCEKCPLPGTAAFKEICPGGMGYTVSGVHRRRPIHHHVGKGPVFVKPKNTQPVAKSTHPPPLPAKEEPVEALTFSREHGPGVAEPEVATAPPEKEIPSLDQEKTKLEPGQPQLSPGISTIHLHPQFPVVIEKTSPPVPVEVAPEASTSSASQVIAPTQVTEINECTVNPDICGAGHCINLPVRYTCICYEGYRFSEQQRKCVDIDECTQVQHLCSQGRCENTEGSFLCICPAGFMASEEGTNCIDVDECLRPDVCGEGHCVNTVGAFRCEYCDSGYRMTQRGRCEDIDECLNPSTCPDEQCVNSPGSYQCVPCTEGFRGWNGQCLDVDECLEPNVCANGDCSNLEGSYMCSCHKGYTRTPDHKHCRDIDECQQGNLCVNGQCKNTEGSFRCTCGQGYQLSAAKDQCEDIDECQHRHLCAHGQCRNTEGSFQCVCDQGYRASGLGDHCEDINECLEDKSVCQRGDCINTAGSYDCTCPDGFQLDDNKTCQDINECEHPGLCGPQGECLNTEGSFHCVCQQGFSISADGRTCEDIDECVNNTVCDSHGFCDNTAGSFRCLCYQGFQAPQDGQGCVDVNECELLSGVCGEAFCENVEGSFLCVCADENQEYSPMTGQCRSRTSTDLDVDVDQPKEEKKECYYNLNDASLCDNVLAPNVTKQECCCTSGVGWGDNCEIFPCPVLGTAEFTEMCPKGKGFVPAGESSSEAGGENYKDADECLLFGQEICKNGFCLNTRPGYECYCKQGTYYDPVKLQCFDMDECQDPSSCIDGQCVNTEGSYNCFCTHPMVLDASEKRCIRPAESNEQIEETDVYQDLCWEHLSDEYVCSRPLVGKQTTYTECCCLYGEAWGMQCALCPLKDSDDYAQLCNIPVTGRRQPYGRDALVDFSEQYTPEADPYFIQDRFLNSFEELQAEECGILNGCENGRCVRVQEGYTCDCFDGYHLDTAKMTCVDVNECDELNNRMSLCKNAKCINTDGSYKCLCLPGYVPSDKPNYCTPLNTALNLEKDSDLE
Regarding B1, the “IC50, reporter cell assay” value worked out at 2.95 nM.
Regarding B2, the “IC50, reporter cell assay” value came out at 1.85 nM.
Regarding B3, the “IC50, reporter cell assay” value was 1.66 nM.
On the same count and under the same terms, the value for B4 was 3.79 nM.
Take B5: the “IC50, reporter cell assay” value turned out to be 1.61 nM.
As to B8, the “IC50, reporter cell assay” value turned out to be 0.835 nM.
On the same count and under the same terms, the value for B9 was 6.08 nM; that for B10 was 0.471 nM; that for B13 was 0.713 nM.
Still for that read-out and setting: in the case of B15 it was 1.56 nM.

The next assay addresses hLTBP3-proTGFβ1 as produced in the cell-based activation assay (human, UniProt P01137 30-390; Q9NS15 44-1303). The assay is described as follows: cell-based or functional assay.
For the molecule B1, the “IC50, reporter cell assay” value turned out to be 1.56 nM.
As for B2, the “IC50, reporter cell assay” value worked out at 1.18 nM.
Same read-out and setting: in the case of B3 it was 1.6 nM; in that of B4, 1.55 nM; in that of B5, 0.765 nM.
B8: the “IC50, reporter cell assay” value is 0.879 nM.
The same measure, in the same setting: the value for B9 was 0.538 nM; that for B10 was 0.803 nM.
As to B13, the “IC50, reporter cell assay” value worked out at 0.716 nM.
Take B15: the “IC50, reporter cell assay” value was found to be 1.11 nM.

In another assay the target is hGARP-proTGFβ1 presented on cells (human, UniProt P01137 30-390; Q14392 20-662). The assay is described as follows: cell-based or functional assay.
hGARP-proTGFβ1 presented on cells, sequence (P01137 30-390 limits assumed, chain 1 of 2): as the sequence (P01137 30-390, chain 1 of 2) above
hGARP-proTGFβ1 presented on cells, sequence (Q14392 20-662 limits assumed, chain 2 of 2): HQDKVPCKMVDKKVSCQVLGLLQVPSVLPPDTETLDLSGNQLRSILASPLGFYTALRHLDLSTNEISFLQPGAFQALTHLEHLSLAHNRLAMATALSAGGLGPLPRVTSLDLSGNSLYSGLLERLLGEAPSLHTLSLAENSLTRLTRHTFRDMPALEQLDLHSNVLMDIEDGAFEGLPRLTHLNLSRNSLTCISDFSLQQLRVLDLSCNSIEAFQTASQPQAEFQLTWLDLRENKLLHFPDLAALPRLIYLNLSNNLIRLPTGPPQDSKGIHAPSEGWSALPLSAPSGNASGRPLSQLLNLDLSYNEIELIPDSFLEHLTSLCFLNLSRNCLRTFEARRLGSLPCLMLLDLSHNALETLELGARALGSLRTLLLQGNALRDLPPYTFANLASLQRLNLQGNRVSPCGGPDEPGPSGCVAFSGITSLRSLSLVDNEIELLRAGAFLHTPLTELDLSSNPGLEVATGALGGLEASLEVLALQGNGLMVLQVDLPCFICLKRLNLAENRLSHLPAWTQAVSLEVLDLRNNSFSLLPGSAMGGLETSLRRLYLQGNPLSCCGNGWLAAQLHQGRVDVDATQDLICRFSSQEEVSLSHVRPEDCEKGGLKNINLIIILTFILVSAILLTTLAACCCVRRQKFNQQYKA
As for B1, the “IC50, reporter cell assay” value amounted to 0.79 nM.
On to B2, for which the “IC50, reporter cell assay” value is 0.387 nM.
Still for that read-out and setting: in the case of B3 it was 1.34 nM; in that of B4, 1.08 nM.
Same read-out and setting: the value for B5 was 0.401 nM; that for B8 was 0.264 nM.
Still for that read-out and setting: the value for B9 was 0.442 nM; that for B10 was 0.264 nM.
With B13, the “IC50, reporter cell assay” value was 0.262 nM.
For the molecule B15, the “IC50, reporter cell assay” value was found to be 0.198 nM.

A further assay addresses hLRRC33-proTGFβ1 presented on cells (human, UniProt P01137 30-390; Q86YC3 19-692). Briefly: cell-based or functional assay.
Consider B1, for which the “IC50, reporter cell assay” value was determined as 1.27 nM.
Turning to B2, the “IC50, reporter cell assay” value amounted to 1.35 nM.
With B3, the “IC50, reporter cell assay” value was 0.401 nM.
With B4, the “IC50, reporter cell assay” value was 2.43 nM.
Consider B5, for which the “IC50, reporter cell assay” value amounted to 0.596 nM.
On to B8, for which the “IC50, reporter cell assay” value turned out to be 0.579 nM.
Turning to B9, the “IC50, reporter cell assay” value was found to be 0.653 nM.
On the same count and under the same terms, in the case of B10 it was 0.458 nM.
Turning to B13, the “IC50, reporter cell assay” value amounted to 0.341 nM.
As for B15, the “IC50, reporter cell assay” value stood at 0.738 nM.
